# Reference: the Immune Epitope Database (IEDB)
# Molecular target: HLA-A*02:01
# Test: IEDB peptide-MHC binding, purified MHC/competitive/radioactivity; ≥ and ≤ were set here for values at or beyond the usual limits of such assays
# Details: source organism: Vaccinia virus WR
row,Sequence,IC50 [µM]
1,FAISYCRAFI,1.97
2,FIASAPQQL,0.12
3,FIISTLNKI,0.0061
4,FIMRNFLRSI,0.00047
5,FIPIIYSKA,0.163
6,FISIYSRPKI,0.135
7,FISPASISSV,0.0014
8,FISSFLLPLT,0.062
9,FITVLTSVDI,0.603
10,FLDWIKDIMT,0.05
11,FLFWFLKSGA,0.0019
12,FLLPLTSLVI,0.00084
13,FLPQIGGEA,1.36
14,FLTGTFVTA,0.015
15,FMSHVKSVT,0.873
16,FMYTKHSML,0.02
17,FQESFYEDIA,4.84
18,FTEGKINPLL,0.162
19,FTFGDTALYV,0.181
20,FTILEYLYI,0.068
21,FTILEYLYIM,0.095
22,FTKDGKLDDT,0.98
23,FTNSQIFNI,0.009
24,FTNSQIFNII,1.57
25,FTSDYPFYV,0.0015
26,FVATFRDML,2.26
27,FVATFRDMLL,0.016

# Molecular target: HLA-A*02:03
# Test: as above
# Details: source organism: Hepacivirus hominis
row,Sequence,IC50 [µM]
1,FMRDEVSFSV,0.0027

# Same assay, conditions: source organism: Influenza A virus
row,Sequence,IC50 [µM]
1,FQVDCFLWH,1.26

# Same assay, conditions: source organism: Mammarenavirus choriomeningitidis
row,Sequence,IC50 [µM]
1,FSTSAYLISI,0.014

# Same assay, conditions: source organism: Mammarenavirus lassaense
row,Sequence,IC50 [µM]
1,FSTSFYLISI,0.053

# Same assay, conditions: source organism: SARS-CoV1
row,Sequence,IC50 [µM]
1,FICNLLLLFV,0.015
2,FLAFLLFLV,0.058
3,FLAFLLFLVL,0.245
4,FLAFVVFLL,0.088
5,FLAFVVFLLV,0.211
6,FLAHLQWFA,0.00021
7,FLCLFLLPSL,0.0029
8,FLFLAWIML,0.038
9,FLIVAALVFL,0.162
10,FLLPSLATV,0.0002
11,FLNGSCGSV,0.00057
12,FMRFFTLGSI,0.00076
13,FTLLFQLCT,0.744
14,FVDEFYAYL,0.0026

# Same assay, conditions: source organism: Vaccinia virus WR
row,Sequence,IC50 [µM]
1,ELKHGLLDSI,0.055
2,ELTTVFIKYV,0.719
3,EMVEYLENQL,0.209
4,ETIEILRNYL,1.41
5,ETIQKDINIT,0.01
6,ETLPELNLSL,0.13
7,EVERLMELPV,1.43
8,EVNDTHYTV,0.115
9,FAISYCRAFI,0.038
10,FIASAPQQL,0.0044
11,FIISTLNKI,0.00042
12,FIMRNFLRSI,0.00012
13,FIPIIYSKA,0.0018
14,FISIYSRPKI,0.102
15,FISPASISSV,0.00011
16,FISSFLLPLT,0.044
17,FITVLTSVDI,0.237
18,FLDWIKDIMT,0.146

row,Sequence,IC50 [µM]
1,FLFWFLKSGA,0.00058
2,FLLPLTSLVI,0.0051
3,FLPQIGGEA,0.121
4,FLTGTFVTA,0.00071
5,FMSHVKSVT,0.181
6,FMYTKHSML,0.00039
7,FQESFYEDIA,0.555
8,FTEGKINPLL,0.595
9,FTFGDTALYV,0.048
10,FTILEYLYI,0.169
11,FTILEYLYIM,3.2
12,FTKDGKLDDT,0.187
13,FTNSQIFNI,0.0071
14,FTNSQIFNII,0.457
15,FTSDYPFYV,0.0039
16,FVATFRDML,0.206
17,FVATFRDMLL,0.018

# Molecular target: HLA-A*02:06
# Test: as above
# Details: source organism: Hepacivirus hominis
row,Sequence,IC50 [µM]
1,FMRDEVSFSV,0.01

# Same assay, conditions: source organism: Influenza A virus
row,Sequence,IC50 [µM]
1,FQVDCFLWH,0.093

# Same assay, conditions: source organism: Mammarenavirus choriomeningitidis
row,Sequence,IC50 [µM]
1,FSTSAYLISI,0.0035

# Same assay, conditions: source organism: Mammarenavirus lassaense
row,Sequence,IC50 [µM]
1,FSTSFYLISI,0.0092

# Same assay, conditions: source organism: SARS-CoV1
row,Sequence,IC50 [µM]
1,FICNLLLLFV,0.004
2,FLAFLLFLV,0.009
3,FLAFLLFLVL,2
4,FLAFVVFLL,0.0026
5,FLAFVVFLLV,2.98
6,FLAHLQWFA,0.00057
7,FLCLFLLPSL,0.00037
8,FLFLAWIML,0.037
9,FLIVAALVFL,0.0036
10,FLLPSLATV,0.00041
11,FLNGSCGSV,0.064
12,FMRFFTLGSI,0.195
13,FTLLFQLCT,0.14
14,FVDEFYAYL,0.00036

# Same assay, conditions: source organism: Vaccinia virus WR
row,Sequence,IC50 [µM]
1,ELKHGLLDSI,1.34
2,ELTTVFIKYV,0.463
3,EMVEYLENQL,0.42
4,ETIEILRNYL,0.00028
5,ETIQKDINIT,0.112
6,ETLPELNLSL,0.134
7,EVERLMELPV,3.63
8,EVNDTHYTV,4.77
9,FAISYCRAFI,0.035
10,FIASAPQQL,0.089
11,FIISTLNKI,0.0058
12,FIMRNFLRSI,0.00045
13,FIPIIYSKA,0.095
14,FISIYSRPKI,0.396
15,FISPASISSV,0.002
16,FISSFLLPLT,0.051
17,FITVLTSVDI,1.27
18,FLDWIKDIMT,0.14

row,Sequence,IC50 [µM]
1,FLFWFLKSGA,0.023
2,FLLPLTSLVI,0.0025
3,FLPQIGGEA,0.096
4,FLTGTFVTA,0.0021
5,FMSHVKSVT,4.32
6,FMYTKHSML,0.222
7,FQESFYEDIA,0.303
8,FTEGKINPLL,0.086
9,FTFGDTALYV,0.0035
10,FTILEYLYI,0.267
11,FTILEYLYIM,0.04
12,FTKDGKLDDT,0.898
13,FTNSQIFNI,0.0048
14,FTNSQIFNII,1.2
15,FTSDYPFYV,0.0036
16,FVATFRDML,0.487
17,FVATFRDMLL,0.0044
